The results in this text go back to patent US10946092 (BEIJING MABWORKS BIOTECH, dated 2021).

In assay [1] the target is T1, mouse LAG3 expressed on HEK293A cells (mouse, UniProt Q61790 24-521).
T1 construct: whole, on cells; also called HEK293A/mouse LAG3
T1 sequence (looked up): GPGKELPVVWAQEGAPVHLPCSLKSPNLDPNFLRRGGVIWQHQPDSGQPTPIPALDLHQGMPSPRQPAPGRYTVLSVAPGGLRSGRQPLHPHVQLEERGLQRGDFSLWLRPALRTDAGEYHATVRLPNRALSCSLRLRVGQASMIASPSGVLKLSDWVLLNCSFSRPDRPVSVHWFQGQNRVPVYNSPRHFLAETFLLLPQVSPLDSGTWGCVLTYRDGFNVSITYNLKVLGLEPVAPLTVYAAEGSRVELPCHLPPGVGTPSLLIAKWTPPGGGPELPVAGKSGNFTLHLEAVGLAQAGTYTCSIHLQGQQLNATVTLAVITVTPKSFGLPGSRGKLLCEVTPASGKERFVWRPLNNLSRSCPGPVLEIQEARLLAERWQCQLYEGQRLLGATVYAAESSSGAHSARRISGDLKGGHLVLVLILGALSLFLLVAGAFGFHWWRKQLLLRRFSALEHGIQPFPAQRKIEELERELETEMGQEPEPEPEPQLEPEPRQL
As to the kind of experiment: FACS on HEK293A cells expressing mouse LAG3.

For assay [2], the target named is T2, recombinant human LAG3(ECD)-his (Sino Biological, Cat #: 16498-H08H) (human, UniProt P18627 23-450).
T2 construct: extracellular domain; Bought protein; not shown: his tag
T2 sequence (looked up): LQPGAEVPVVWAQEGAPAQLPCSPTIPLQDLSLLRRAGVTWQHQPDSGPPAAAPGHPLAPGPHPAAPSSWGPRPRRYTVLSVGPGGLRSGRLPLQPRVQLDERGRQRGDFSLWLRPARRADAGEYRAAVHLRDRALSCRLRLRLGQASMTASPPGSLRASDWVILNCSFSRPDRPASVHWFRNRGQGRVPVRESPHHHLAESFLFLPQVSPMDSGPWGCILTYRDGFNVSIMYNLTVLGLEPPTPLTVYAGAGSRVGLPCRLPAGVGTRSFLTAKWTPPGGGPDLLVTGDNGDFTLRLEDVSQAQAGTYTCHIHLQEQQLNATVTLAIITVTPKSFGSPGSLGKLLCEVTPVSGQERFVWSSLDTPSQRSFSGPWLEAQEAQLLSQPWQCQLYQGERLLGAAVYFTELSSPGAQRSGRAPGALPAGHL
As to the kind of experiment: SPR (BIAcore 8K), human LAG3(ECD)-his coupled to chip, antibody injected, 1:1 Langmuir. The procedure:
(§1) Serially diluted antibodies at concentrations ranging from 0.3 μM to 10 μM were injected into the SPR running buffer (HBS-EP buffer, pH7.4, GE Life Sciences; US; Cat #: BR-1006-69) at 30 μL/minute. The binding capacities were calculated with the RUs of blank controls subtracted. The association rate (Ka) and dissociation rate (Kd) were calculated using the one-to-one Langmuir binding model (BIA Evaluation Software, GE Life Sciences). The equilibrium dissociation constant K_D was calculated as the kd/ka ratio.

The target of assay [3] is T3, human LAG3 expressed on HEK293A cells (human, UniProt P18627 23-525).
T3 construct: whole, on cells; also called HEK293A/human LAG3
T3 sequence (looked up): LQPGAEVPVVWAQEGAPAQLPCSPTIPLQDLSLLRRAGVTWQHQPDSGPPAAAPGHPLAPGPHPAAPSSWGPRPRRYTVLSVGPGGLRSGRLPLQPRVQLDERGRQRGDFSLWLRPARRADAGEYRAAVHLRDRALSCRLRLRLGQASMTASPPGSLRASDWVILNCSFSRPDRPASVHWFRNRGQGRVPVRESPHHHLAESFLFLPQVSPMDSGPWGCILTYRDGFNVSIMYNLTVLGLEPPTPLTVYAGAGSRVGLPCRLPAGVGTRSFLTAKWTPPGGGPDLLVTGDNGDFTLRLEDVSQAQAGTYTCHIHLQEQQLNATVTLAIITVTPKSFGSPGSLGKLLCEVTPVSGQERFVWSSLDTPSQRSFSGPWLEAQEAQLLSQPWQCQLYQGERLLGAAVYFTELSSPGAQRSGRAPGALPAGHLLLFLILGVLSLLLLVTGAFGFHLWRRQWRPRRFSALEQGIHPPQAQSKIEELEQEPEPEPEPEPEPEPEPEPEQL
The assay can be described thus: FACS on HEK293A cells expressing human LAG3.

The target in assay [4] is T2, recombinant human LAG3(ECD)-his (Sino …). The assay can be described thus: SPR (BIAcore 8K), human LAG3(ECD)-his coupled to chip, antibody injected, 1:1 Langmuir; printed a second time as 'Ka values', read as Kd. The procedure: as §1
Assay [5] deals with T4, monkey (rhesus) LAG3 expressed on HEK293A cells (monkey (rhesus), UniProt A0A5F8A874 23-533).
T4 construct: whole, on cells; also called HEK293A/rh LAG3
T4 sequence: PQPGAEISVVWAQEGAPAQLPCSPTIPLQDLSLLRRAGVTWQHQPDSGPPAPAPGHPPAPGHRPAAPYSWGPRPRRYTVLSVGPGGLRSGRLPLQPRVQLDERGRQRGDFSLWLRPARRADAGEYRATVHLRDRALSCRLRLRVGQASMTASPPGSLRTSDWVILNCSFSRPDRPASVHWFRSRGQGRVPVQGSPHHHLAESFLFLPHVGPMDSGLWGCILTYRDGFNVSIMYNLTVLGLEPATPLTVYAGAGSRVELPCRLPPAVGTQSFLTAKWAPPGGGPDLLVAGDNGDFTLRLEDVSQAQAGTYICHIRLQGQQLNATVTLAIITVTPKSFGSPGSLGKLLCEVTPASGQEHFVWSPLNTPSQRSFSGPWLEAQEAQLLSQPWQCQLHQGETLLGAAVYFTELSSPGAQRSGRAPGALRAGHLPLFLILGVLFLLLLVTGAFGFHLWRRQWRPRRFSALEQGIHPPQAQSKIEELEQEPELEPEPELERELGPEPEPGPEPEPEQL
The assay can be described thus: FACS on HEK293A cells expressing rhesus LAG3.

The target of assay [6] is T1, mouse LAG3 expressed on HEK293A cells. The assay can be described thus: FACS on HEK293A cells expressing mouse LAG3. This is another data set of the same source.

Like-named read-outs stand apart in the source and are kept apart here.

B1: chimeric 134G10 antibody (antibody, human IgG4 S228P, kappa, V domains shown)
VH: EVQLVESGGDLVKPGGSLKLSCAASGFTFSSFGMSWVRQTPDKRLEWVGIISSGGTYTFYPDILKGRFTISRDNAKNTLYLQMSSLKSEDTAMYYCARVYSDYDGRFDYWGQGTTLTVSS
VL: DIVMTQSPSSLSVSAGEKVTMNCKSSQSLLNSGNQKNYLAWYQQKPGQPPKLLIYGASTRESGVPDRFTGSGSGTDFTLTISSVQAEDLAVYYCQNDHSYPLTFGAGTKLELKR
notes: Mouse variable regions on human IgG4 (S228P)/kappa constant regions; also called 134G10-CM
Take B1: the binding result in assay [1] is “no binding”. In assay [2], the Kd came to 737 pM and the kon worked out at 93900 M⁻¹ s⁻¹. The “EC50 (read off the curve)” value in assay [3] was ~0.09 µg/mL.

B2: chimeric 101F4 antibody (antibody, human IgG4 S228P, kappa, V domains shown)
VH: EVQLEQSGAELVRPGASVTLSCKASGYTFTDYEMHWVKQTPVYGLEWMGAIDPETGGIVYNQRFKGKAILTADKSSSTAYMELRSLTSEDSAVYYCTGAGWGYWGQGTTLTVSS
VL: DIVITQSPSSMYASLGERVTITCKASQDINSYLSWFQQKPGKSPKTLIYRANRLLDGVPSRFSGSGSGQDYSLTISSLEFEDMGLYYCLQYDEFPFTFGSGTKLEIKR
notes: Mouse variable regions on human IgG4 (S228P)/kappa constant regions; also called 101F4-CM
For B2, the koff in assay [4] was determined as 0.000335 s⁻¹. For the same molecule, in assay [5], the “EC50 (read off the curve)” value is ~0.4 µg/mL. Also, in assay [6], the binding result is “no binding”. Also, in assay [2], the Kd stood at 833 pM and the kon amounted to 403000 M⁻¹ s⁻¹. The “EC50 (read off the curve)” value in assay [3] was ~0.05 µg/mL.
